Assay results published in US20070178101A1.

Columns and labels:
[1] = target: Ovr110-HA on stably transfected mouse LMTK cells (human) (UniProt Q7Z7D3); assay: FACS on Ovr110-HA transfected mouse LMTK cells, secondary antibody alone
[2] = target: Ovr110-HA on stably transfected mouse LMTK cells (human) (UniProt Q7Z7D3); assay: FACS on Ovr110-HA transfected mouse LMTK cells, secondary antibody alone, gate I

## Donkey Anti-Mouse Ig-PE (antibody)
[1]
  Mean of Fluorescence: 0.48
[2]
  Percentage of cells: 0.6
